Measured values reported in patent publication US20170114115A1.

Columns and labels:
Assay in all cases: cell-based or functional assay
[1] = biological target: recombinant human glucagon receptor (human) (UniProt P47871)
[2] = biological target: human Glucagon-Like Peptide-1 receptor (human) (UniProt P43220)
[3] = biological target: T1, human glucose-dependent insulinotropic polypeptide receptor (human) (UniProt P48546)
T1 sequence (looked up): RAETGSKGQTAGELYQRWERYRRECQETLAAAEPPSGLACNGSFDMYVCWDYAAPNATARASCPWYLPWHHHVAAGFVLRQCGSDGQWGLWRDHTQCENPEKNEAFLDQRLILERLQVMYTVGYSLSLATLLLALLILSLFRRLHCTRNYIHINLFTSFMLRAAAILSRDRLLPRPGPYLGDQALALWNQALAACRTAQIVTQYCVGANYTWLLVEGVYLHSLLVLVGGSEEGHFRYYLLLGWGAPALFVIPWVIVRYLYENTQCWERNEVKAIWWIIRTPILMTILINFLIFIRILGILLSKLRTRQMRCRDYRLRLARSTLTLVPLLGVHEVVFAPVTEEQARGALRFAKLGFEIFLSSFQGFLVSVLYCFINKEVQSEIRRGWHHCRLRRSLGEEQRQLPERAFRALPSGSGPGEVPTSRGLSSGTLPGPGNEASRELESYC

Sequence of dulaglutide (Fc fusion) (chain): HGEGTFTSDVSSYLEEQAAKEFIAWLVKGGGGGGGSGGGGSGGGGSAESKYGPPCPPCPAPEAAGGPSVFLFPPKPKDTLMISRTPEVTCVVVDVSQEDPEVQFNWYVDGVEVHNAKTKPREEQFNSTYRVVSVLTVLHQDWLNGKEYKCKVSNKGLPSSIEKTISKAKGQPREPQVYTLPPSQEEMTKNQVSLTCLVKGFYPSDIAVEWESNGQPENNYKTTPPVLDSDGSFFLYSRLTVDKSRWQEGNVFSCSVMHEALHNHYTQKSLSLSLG
Sequence of recombinant human glucagon receptor (human) (P47871 26-477): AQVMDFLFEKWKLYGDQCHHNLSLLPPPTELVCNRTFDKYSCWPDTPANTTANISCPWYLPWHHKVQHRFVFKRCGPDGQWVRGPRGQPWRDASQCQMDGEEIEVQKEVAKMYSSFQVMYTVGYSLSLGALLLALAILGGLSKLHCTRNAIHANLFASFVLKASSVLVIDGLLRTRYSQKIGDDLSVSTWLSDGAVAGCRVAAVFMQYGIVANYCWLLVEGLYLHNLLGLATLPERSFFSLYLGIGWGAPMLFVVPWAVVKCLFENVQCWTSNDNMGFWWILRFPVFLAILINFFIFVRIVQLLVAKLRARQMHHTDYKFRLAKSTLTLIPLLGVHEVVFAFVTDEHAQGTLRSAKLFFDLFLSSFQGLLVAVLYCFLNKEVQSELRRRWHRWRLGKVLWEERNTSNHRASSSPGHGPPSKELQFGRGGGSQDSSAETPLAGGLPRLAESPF
Sequence of human Glucagon-Like Peptide-1 receptor (human) (P43220 24-463): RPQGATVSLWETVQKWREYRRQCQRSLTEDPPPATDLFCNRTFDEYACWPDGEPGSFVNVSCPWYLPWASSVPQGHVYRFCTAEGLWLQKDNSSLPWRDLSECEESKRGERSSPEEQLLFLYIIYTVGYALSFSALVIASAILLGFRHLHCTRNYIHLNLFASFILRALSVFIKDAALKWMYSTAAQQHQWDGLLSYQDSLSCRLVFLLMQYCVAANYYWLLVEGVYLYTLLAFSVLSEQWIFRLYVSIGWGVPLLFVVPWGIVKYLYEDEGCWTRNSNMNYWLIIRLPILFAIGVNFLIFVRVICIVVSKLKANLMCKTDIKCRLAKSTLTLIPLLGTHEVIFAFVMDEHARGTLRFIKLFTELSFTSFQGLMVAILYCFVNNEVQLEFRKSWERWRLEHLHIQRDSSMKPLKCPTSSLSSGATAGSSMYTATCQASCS

For dulaglutide (Fc fusion), the EC50, Gcg Receptor Assay (cAMP); sample C6.5-4 C.-4 wk [1] was 0.0519 µM, the EC50, Gcg Receptor Assay (cAMP); sample C6.5-40 C.-4 wk [1] was over 0.1 µM and the EC50, Gcg Receptor Assay (cAMP); sample C6.5MT-4 C.-4 wk [1] was 0.054 µM. For the same substance, the EC50, Gcg Receptor Assay (cAMP); sample C6.5MT-40 C.-4 wk [1] was over 0.1 µM, the EC50, GLP-1 Receptor Assay (cAMP); sample C6.5-4 C.-4 wk [2] was 0.00037 µM and the EC50, GLP-1 Receptor Assay (cAMP); sample C6.5-40 C.-4 wk [2] was 0.00031 µM. It also gave an EC50, GLP-1 Receptor Assay (cAMP); sample C6.5MT-4 C.-4 wk [2] of 0.0004 µM, an EC50, GLP-1 Receptor Assay (cAMP); sample C6.5MT-40 C.-4 wk [2] of 0.00029 µM and an EC50, GIP Receptor Assay (cAMP); sample C6.5-4 C.-4 wk [3] of over 0.1 µM. The EC50, GIP Receptor Assay (cAMP); sample C6.5-40 C.-4 wk [3] was over 0.1 µM, the EC50, GIP Receptor Assay (cAMP); sample C6.5MT-4 C.-4 wk [3] was over 0.1 µM and the EC50, GIP Receptor Assay (cAMP); sample C6.5MT-40 C.-4 wk [3] was over 0.1 µM.
